B1: human mAb 1431 (antibody, V domains shown)
VH: QVQLVQSGGGLVQPGGSLRLSCAASGFAFSNHGMHWVRQAPGKGLEWLSYISGSTGAIHYANSVKGRFTISRDNARNSLDLQMNSLGDEDTAVYYCARDGPRPDGTGYAGPSNDYWGQGTLVSVSS
VL: EIVLTQSPASLSLSPGERATLSCKASRSISIYLAWYQQKPGQAPRLLIYDASYRAIGIPARFSGSGSGTDFTLTISNLEPEDFAVYYCQHRSSWPALTFGGGTKVEI
notes: also called A1431
B2: human mAb 1227 (antibody, V domains shown)
VH: QVQLVQSGGGMVQPGGSLSLSCAASGFTLSNYAMTWVRQAPGKGLEWVSSIGGSGGTTYYADSVKGRFTISRDSSMNTLYLQMSNLRAGDTAVYYCAKDKTRTLRLGYSGMDVWGQGTTVTVSS
VL: DIRLTQSPSSLSASVGDRVTITCRASQSISSYLNWYQQKPGKAPDLLIYGASSLQSGVPSRFSGSGSGTDFTLTISSLQPEDFGNYYCQQSFSTPRTFGQGTKVEL
notes: also called A1227

Key:
Test in all cases: multiplex microsphere immunoassay
GII.4/Sydney VLP = target: T1, GII.4/Sydney VLP (norovirus …, UniProt P54635 1-538)
T1 construct: also called Hu/GII.4/Sydney/NSW0514/2012/AU
T1 chain: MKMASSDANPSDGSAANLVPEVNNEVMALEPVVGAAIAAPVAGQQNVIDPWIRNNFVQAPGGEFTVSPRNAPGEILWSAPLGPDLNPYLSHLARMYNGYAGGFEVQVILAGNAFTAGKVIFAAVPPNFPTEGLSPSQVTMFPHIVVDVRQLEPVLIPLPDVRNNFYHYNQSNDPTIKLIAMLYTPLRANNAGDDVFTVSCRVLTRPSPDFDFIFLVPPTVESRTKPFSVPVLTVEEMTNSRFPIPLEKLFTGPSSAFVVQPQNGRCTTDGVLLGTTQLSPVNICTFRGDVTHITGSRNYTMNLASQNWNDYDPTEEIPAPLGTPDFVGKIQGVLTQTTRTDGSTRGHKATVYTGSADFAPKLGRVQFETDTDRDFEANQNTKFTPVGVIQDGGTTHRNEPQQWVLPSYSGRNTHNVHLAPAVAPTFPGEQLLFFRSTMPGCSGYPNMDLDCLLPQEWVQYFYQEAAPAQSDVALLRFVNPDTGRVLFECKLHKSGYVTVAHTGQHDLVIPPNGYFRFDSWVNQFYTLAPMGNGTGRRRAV

GII.4/Den Haag VLP = target: T2, GII.4/Den Haag VLP (norovirus Hu/GII.4/DenHaag89/2006/NL, UniProt P54635 1-539)
T2 construct: also called Hu/GII.4/DenHaag89/2006/NL
T2 chain: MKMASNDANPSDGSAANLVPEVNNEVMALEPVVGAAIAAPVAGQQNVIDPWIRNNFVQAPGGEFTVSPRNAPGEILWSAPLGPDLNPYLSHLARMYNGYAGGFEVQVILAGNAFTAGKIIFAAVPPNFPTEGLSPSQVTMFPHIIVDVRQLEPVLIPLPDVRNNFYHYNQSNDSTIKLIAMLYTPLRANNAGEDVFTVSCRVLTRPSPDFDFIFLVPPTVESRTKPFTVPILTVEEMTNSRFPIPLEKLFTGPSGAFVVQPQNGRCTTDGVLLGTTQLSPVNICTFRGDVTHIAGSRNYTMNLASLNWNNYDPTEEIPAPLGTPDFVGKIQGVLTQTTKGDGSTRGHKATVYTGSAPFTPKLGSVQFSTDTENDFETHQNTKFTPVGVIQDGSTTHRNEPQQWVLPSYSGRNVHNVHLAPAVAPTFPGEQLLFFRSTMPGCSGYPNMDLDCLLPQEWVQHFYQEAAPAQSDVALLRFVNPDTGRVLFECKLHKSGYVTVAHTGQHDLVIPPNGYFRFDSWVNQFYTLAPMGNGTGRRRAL

GII.7 VLP = target: T3, GII.7 VLP (norovirus Hu/GII.7/NSW088L/2007/AUS)
T3 construct: also called Hu/GII.7/NSW088L/2007/AUS
T3 chain: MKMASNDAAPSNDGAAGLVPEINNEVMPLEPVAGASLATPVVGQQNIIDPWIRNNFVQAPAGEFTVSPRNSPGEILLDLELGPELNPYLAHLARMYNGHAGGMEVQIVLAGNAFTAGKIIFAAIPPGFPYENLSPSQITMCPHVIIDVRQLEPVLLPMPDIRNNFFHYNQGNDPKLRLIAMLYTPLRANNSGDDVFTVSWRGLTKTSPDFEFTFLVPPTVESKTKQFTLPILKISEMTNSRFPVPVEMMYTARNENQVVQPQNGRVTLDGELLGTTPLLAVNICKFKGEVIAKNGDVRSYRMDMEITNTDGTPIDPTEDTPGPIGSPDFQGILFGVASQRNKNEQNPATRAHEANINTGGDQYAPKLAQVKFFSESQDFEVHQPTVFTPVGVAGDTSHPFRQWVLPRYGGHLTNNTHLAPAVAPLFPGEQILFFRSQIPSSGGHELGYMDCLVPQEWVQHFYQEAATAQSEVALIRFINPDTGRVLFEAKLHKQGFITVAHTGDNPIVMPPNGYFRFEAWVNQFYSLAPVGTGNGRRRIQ

GII.12 VLP = target: T4, GII.12 VLP (norovirus Hu/GII.12 strain E5152)
T4 construct: also called Hu/GII.12 strain E5152
T4 chain: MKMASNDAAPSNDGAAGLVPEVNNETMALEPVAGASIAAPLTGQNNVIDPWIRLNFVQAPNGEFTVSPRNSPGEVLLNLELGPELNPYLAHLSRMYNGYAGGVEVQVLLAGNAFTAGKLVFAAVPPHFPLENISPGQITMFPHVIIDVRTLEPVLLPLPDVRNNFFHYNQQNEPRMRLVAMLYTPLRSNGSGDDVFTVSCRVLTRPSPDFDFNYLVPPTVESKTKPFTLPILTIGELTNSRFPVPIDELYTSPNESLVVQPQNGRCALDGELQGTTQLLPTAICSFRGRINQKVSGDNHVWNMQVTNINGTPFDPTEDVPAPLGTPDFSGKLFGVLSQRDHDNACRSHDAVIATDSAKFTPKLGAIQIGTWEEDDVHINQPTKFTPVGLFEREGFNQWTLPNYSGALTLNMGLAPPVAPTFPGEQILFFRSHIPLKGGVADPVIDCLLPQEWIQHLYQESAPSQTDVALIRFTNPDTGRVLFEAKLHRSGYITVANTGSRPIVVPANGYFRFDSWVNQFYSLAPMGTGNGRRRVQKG

GII.2 VLP = target: T5, GII.2 VLP (norovirus Hu/GII.2/OH10026/2010/JP)
T5 chain: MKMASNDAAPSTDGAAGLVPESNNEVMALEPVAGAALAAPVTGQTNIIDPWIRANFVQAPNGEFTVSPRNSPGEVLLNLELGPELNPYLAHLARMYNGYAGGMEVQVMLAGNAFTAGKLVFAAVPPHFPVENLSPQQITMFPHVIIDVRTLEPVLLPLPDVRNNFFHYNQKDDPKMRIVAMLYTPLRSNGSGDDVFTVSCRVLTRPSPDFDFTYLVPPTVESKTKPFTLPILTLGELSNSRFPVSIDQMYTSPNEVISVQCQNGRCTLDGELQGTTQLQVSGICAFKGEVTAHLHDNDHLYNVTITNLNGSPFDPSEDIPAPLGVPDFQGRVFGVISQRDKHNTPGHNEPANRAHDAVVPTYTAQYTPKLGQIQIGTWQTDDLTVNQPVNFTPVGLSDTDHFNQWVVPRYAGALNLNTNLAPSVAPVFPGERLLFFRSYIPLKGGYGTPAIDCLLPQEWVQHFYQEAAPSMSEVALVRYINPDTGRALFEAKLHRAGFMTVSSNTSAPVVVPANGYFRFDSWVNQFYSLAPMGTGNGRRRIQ

Binder	EC50 (GII.4/Sydney VLP)	EC50 (GII.4/Den Haag VLP)	binding result (GII.7 VLP)	binding result (GII.12 VLP)	binding result (GII.2 VLP)	EC50 (GII.7 VLP)	EC50 (GII.12 VLP)	EC50 (GII.2 VLP)
B1	0.026 µg/mL	0.024 µg/mL	no binding	no binding	no binding			
B2	0.012 µg/mL	0.014 µg/mL				0.009 µg/mL	0.026 µg/mL	0.105 µg/mL

Source: patent publication US20240402174A1 (Takeda / Millennium, published 2024)
